In PMC10397247:

What was measured:
4H2438-bN = target: T1, 4H2438-bN; experiment: two-hybrid library CCNG1;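 also: natural log of median RNA to DNA barcode read ratio; higher means stronger binding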
T1 chain: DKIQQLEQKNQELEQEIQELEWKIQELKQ

4H2473-bN = target: T2, 4H2473-bN; experiment: two-hybrid library CCNG1;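 also: natural log of median RNA to DNA barcode read ratio; higher means stronger binding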
T2 chain: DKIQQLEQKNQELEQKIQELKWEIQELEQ

4H2503-bN = target: T3, 4H2503-bN; experiment: two-hybrid library CCNG1;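 also: natural log of median RNA to DNA barcode read ratio; higher means stronger binding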
T3 chain: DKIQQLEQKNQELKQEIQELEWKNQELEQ

4H2588-bN = target: T4, 4H2588-bN; experiment: two-hybrid library CCNG1;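 also: natural log of median RNA to DNA barcode read ratio; higher means stronger binding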
T4 chain: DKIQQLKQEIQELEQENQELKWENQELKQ

4H2692-bN = target: T5, 4H2692-bN; experiment: two-hybrid library CCNG1;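 also: natural log of median RNA to DNA barcode read ratio; higher means stronger binding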
T5 chain: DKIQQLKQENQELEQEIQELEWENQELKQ

4H2717-bN = target: T6, 4H2717-bN; experiment: two-hybrid library CCNG1;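 also: natural log of median RNA to DNA barcode read ratio; higher means stronger binding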
T6 chain: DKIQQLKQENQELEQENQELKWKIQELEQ

4H2839-bN = target: T7, 4H2839-bN; experiment: two-hybrid library CCNG1
T7 chain: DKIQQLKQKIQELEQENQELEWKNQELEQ

4H2915-bN = target: T8, 4H2915-bN; experiment: two-hybrid library CCNG1
T8 chain: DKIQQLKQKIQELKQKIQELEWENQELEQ

4H3057-bN = target: T9, 4H3057-bN; experiment: two-hybrid library CCNG1
T9 chain: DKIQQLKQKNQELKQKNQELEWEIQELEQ

4H319-bN = target: T10, 4H319-bN; experiment: two-hybrid library CCNG1
T10 chain: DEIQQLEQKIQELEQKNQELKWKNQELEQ

4H3277-bN = target: T11, 4H3277-bN; experiment: two-hybrid library CCNG1
T11 chain: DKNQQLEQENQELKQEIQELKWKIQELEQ

4H348-bN = target: T12, 4H348-bN; experiment: two-hybrid library CCNG1
T12 chain: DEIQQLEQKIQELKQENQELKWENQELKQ

4H3926-bH = target: T13, 4H3926-bH; experiment: two-hybrid library CCNG1
T13 chain: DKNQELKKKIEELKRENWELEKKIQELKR

4H40-bN = target: T14, 4H40-bN; experiment: two-hybrid library CCNG1
T14 chain: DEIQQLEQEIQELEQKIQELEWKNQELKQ

4H477-bN = target: T15, 4H477-bN; experiment: two-hybrid library CCNG1
T15 chain: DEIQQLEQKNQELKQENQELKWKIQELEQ

4H492-bN = target: T16, 4H492-bN; experiment: two-hybrid library CCNG1
T16 chain: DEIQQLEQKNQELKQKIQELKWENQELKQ

4H741-bN = target: T17, 4H741-bN; experiment: two-hybrid library CCNG1
T17 chain: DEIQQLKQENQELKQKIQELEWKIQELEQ

4H2600-AA = target: T18, 4H2600-AA; experiment: two-hybrid library CCmax
T18 chain: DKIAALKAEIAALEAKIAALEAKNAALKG

4H2721-AA = target: T19, 4H2721-AA; experiment: two-hybrid library CCmax; conditions: mean of both orientations
T19 chain: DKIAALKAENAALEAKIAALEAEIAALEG

4H2750-AA = target: T20, 4H2750-AA; experiment: two-hybrid library CCmax; conditions: mean of both orientations
T20 chain: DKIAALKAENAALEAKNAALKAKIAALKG

4H2898-AA = target: T21, 4H2898-AA; experiment: two-hybrid library CCmax; conditions: mean of both orientations
T21 chain: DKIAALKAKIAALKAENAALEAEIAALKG

4H3020-AA = target: T22, 4H3020-AA; experiment: two-hybrid library CCmax; conditions: mean of both orientations
T22 chain: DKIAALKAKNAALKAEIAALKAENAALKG

4H3365-AA = target: T23, 4H3365-AA; experiment: two-hybrid library CCmax; conditions: mean of both orientations
T23 chain: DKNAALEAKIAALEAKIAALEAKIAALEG

4H355-AA = target: T24, 4H355-AA; experiment: two-hybrid library CCmax; conditions: mean of both orientations
T24 chain: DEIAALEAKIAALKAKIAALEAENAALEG

4H3651-AA = target: T25, 4H3651-AA; experiment: two-hybrid library CCmax; conditions: mean of both orientations
T25 chain: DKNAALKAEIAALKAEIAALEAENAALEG

4H3705-AA = target: T26, 4H3705-AA; experiment: two-hybrid library CCmax; conditions: mean of both orientations
T26 chain: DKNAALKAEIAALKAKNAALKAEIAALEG

4H3782-AA = target: T27, 4H3782-AA; experiment: two-hybrid library CCmax; conditions: mean of both orientations
T27 chain: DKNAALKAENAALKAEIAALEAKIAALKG

4H465-AA = target: T28, 4H465-AA; experiment: two-hybrid library CCmax; conditions: mean of both orientations
T28 chain: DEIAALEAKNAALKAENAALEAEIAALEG

4H486-AA = target: T29, 4H486-AA; experiment: two-hybrid library CCmax; conditions: mean of both orientations
T29 chain: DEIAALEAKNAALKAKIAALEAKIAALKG

4H535-AA = target: T30, 4H535-AA; experiment: two-hybrid library CCmax; conditions: mean of both orientations
T30 chain: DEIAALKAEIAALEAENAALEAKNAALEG

4H58-AA = target: T31, 4H58-AA; experiment: two-hybrid library CCmax; conditions: mean of both orientations
T31 chain: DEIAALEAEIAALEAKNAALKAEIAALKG

4H895-AA = target: T32, 4H895-AA; experiment: two-hybrid library CCmax; conditions: mean of both orientations
T32 chain: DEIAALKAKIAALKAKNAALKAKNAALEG

4H_APH = target: T33, 4H_APH; experiment: two-hybrid library CCmax
T33 chain: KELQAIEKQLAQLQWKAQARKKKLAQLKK

4H_BCR = target: T34, 4H_BCR; experiment: two-hybrid library CCmax; conditions: mean of both orientations
T34 chain: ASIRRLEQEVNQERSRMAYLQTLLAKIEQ

4H_GCN4 = experiment: two-hybrid library CCmax
4H_GCN4, sequence (chain, as listed by the source): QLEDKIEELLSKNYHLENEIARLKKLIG

GCN2_T = experiment: two-hybrid library CCmax
4H2458-AA = target: T35, 4H2458-AA; experiment: two-hybrid library CCmax
T35 chain: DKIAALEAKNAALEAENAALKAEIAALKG

4H3330-AA = target: T36, 4H3330-AA; experiment: two-hybrid library CCmax; conditions: mean of both orientations
T36 chain: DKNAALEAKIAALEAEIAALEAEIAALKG

4H716-AA = target: T37, 4H716-AA; experiment: two-hybrid library CCmax; conditions: mean of both orientations
T37 chain: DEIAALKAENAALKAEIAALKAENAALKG

4H733-AA = target: T38, 4H733-AA; experiment: two-hybrid library CCmax; conditions: mean of both orientations
T38 chain: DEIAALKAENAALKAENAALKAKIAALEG

4H807-AA = target: T39, 4H807-AA; experiment: two-hybrid library CCmax; conditions: mean of both orientations
T39 chain: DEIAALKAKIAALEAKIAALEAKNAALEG

APC1015-AA = target: T40, APC1015-AA; experiment: two-hybrid library CCmax; conditions: mean of both orientations
T40 chain: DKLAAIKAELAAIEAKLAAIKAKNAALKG

APC1434-AA = target: T41, APC1434-AA; experiment: two-hybrid library CCmax; conditions: mean of both orientations
T41 chain: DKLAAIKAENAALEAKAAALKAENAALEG

APC2237-AA = target: T42, APC2237-AA; experiment: two-hybrid library CCmax; conditions: mean of both orientations
T42 chain: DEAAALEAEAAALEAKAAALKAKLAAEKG

APC232-AA = target: T43, APC232-AA; experiment: two-hybrid library CCmax; conditions: mean of both orientations
T43 chain: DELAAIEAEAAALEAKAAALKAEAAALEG

APC2405-AA = target: T44, APC2405-AA; experiment: two-hybrid library CCmax; conditions: mean of both orientations
T44 chain: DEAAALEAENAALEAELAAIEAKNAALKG

APC3645-AA = target: T45, APC3645-AA; experiment: two-hybrid library CCmax; conditions: mean of both orientations
T45 chain: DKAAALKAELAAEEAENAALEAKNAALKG

APC4011-AA = target: T46, APC4011-AA; experiment: two-hybrid library CCmax; conditions: mean of both orientations
T46 chain: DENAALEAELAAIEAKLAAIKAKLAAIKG

APC4264-AA = target: T47, APC4264-AA; experiment: two-hybrid library CCmax; conditions: mean of both orientations
T47 chain: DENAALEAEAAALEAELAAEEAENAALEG

APC4436-AA = target: T48, APC4436-AA; experiment: two-hybrid library CCmax; conditions: mean of both orientations
T48 chain: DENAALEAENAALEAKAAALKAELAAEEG

APC5383-AA = target: T49, APC5383-AA; experiment: two-hybrid library CCmax; conditions: mean of both orientations
T49 chain: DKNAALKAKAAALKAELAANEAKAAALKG

APC6108-AA = target: T50, APC6108-AA; experiment: two-hybrid library CCmax; conditions: mean of both orientations
T50 chain: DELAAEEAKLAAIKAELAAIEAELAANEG

APC7099-AA = target: T51, APC7099-AA; experiment: two-hybrid library CCmax; conditions: mean of both orientations
T51 chain: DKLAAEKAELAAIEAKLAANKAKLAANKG

APC8191-AA = target: T52, APC8191-AA; experiment: two-hybrid library CCmax; conditions: mean of both orientations
T52 chain: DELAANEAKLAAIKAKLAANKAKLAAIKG

APC8910-AA = target: T53, APC8910-AA; experiment: two-hybrid library CCmax; conditions: mean of both orientations
T53 chain: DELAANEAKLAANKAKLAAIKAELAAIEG

APC9096-AA = target: T54, APC9096-AA; experiment: two-hybrid library CCmax; conditions: mean of both orientations
T54 chain: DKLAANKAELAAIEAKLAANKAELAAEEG

APC9319-AA = target: T55, APC9319-AA; experiment: two-hybrid library CCmax; conditions: mean of both orientations
T55 chain: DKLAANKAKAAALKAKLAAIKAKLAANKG

DKIQQLEQKNQELEQEIQELEWKIQELKQ [4H2438-bN]
interaction score (4H2438-bN): 1.09 | interaction score (4H2473-bN): 1.05 | interaction score (4H2503-bN): 0.452 | interaction score (4H2588-bN): -0.403 | interaction score (4H2692-bN): -1.41 | interaction score (4H2717-bN): -0.613 | interaction score (4H2839-bN): -1.05 | interaction score (4H2915-bN): 2 | interaction score (4H3057-bN): 2.19 | interaction score (4H319-bN): -0.63 | interaction score (4H3277-bN): -0.843 | interaction score (4H348-bN): -1.05 | interaction score (4H3926-bH): -4.14 | interaction score (4H40-bN): -0.693 | interaction score (4H477-bN): 0.509 | interaction score (4H492-bN): 0.204 | interaction score (4H741-bN): -0.278

DKIAALKAEIAALEAKIAALEAKNAALKG [4H2600-AA]
interaction score (4H2600-AA): 1.58 | interaction score (4H2721-AA): -0.793 | interaction score (4H2750-AA): -1.65 | interaction score (4H2898-AA): 0.0245 | interaction score (4H3020-AA): -0.911 | interaction score (4H3365-AA): -0.236 | interaction score (4H355-AA): 2.12 | interaction score (4H3651-AA): 0.646 | interaction score (4H3705-AA): 0.21 | interaction score (4H3782-AA): -1.12 | interaction score (4H465-AA): -1.72 | interaction score (4H486-AA): 0.497 | interaction score (4H535-AA): -0.657 | interaction score (4H58-AA): 0.179 | interaction score (4H895-AA): -0.393 | interaction score (4H_APH): -1.47 | interaction score (4H_BCR): -1.4 | interaction score (4H_GCN4): -1.63 | interaction score (GCN2_T): -1.38

DKIAALEAKNAALEAENAALKAEIAALKG [4H2458-AA]
interaction score (4H2458-AA): 2.24 | interaction score (4H3330-AA): -1.38 | interaction score (4H716-AA): -0.991 | interaction score (4H733-AA): -1.61 | interaction score (4H807-AA): -1.17 | interaction score (APC1015-AA): -1.95 | interaction score (APC1434-AA): -1.22 | interaction score (APC2237-AA): -1.44 | interaction score (APC232-AA): -1.85 | interaction score (APC2405-AA): -1.59 | interaction score (APC3645-AA): -1.47 | interaction score (APC4011-AA): -0.914 | interaction score (APC4264-AA): -1.79 | interaction score (APC4436-AA): -1.67 | interaction score (APC5383-AA): -1.7 | interaction score (APC6108-AA): -1.71 | interaction score (APC7099-AA): -1.31 | interaction score (APC8191-AA): -2.11 | interaction score (APC8910-AA): -1.49 | interaction score (APC9096-AA): -1.34 | interaction score (APC9319-AA): -2.07
